Reference: publication PMC3506619, “NADP^+ Binding to the Regulatory Subunit of Methionine Adenosyltransferase II Increases Intersubunit Binding Affinity in the Hetero-Trimer” (PLoS ONE, 2012)

Target: methionine adenosyltransferase II regulatory β subunit, wild type (human MAT2B, V1 form) (human) (UniProt Q9NZL9)
Experiment: AUC; sedimentation equilibrium of purified β (0.2-0.5 mg/ml), 293 K

Substance: methionine adenosyltransferase II regulatory β subunit, wild type (human MAT2B, V1 form) (from UniProt Q9NZL9 1-334) (natural protein)
- stoichiometry N: 2
